Assay results: patent US8183228B2, “Anticoagulant antithrombotic dual inhibitors comprising a biotin label” (MSD OSS B.V. Netherlands, priority 2005, dated 2012)
Structures can show the parent of a compound that is named as a salt. Where two headings read alike, the source gives them in different places.

Experiments:
[1] = Pharmacokinetics after s.c. administration in rat (plasma anti-Xa activity); assay type: in vivo; settings: for Tmax / AUC(0-inf) / Cmax / half-life: male, Wistar, plasma, sc; for half-life: read-out: T½ eli (converted); for pharmacokinetic behavior in rats (comparison): within the variability of the experiment
Protocol: The pharmacokinetic properties of compounds 10, 12, 17 and 27 were studied in male Wistar rats of 300-400 gr. The rats were anaesthetized by inhalation of a mixture of O2N2O/isoflurane, after which the right jugular vein was cannulated. The next day rats were treated s.c. with doses of 100 or 500 nmol/kg. After s.c. administration, blood was sampled at several time intervals. Then the blood was centrifuged after which the plasma was siphoned off and stored at −20° C. until use. The concentration of the tested compound was measured amidolytically with S2222 (Chromogenix, Chromogenics Ltd, Molndal, Sweden) by determination of the anti-Xa activity based on the method of Teien and Lie in the obtained plasma samples against a calibration curve which was made of the stock solution of the tested compound itself. (Teien A N, Lie M. Evaluation of an amidolytic heparin assay method increased sensitivity by adding purified antithrombin III. Thromb. Res. 1977, 10: 399-410). The concentration in the samples was expressed in nmol/mL and the kinetic parameters were calculated with the noncompartment model of WinNonlin. (FIGS. 6 and 7)

[2] = Pharmacokinetics - neutralization experiment with avidin i.v. in rat; assay type: in vivo; settings: for level at time molar at 24 h: plasma, sc, before avidin, read-out: Plasma level T = 24 h; for level at time molar at 24 h / Plasma level T = 26 h / % reduction of plasma concentration: s.c. 500 nmol/kg; for Plasma level T = 26 h: 2 hours after avidin 10 mg/kg i.v. at t = 24 h; for % reduction of plasma concentration: within 2 hours after avidin 10 mg/kg i.v. at t = 24 h, sodium salt
Protocol: 3.2 Pharmacokinetics—Neutralization Experiment:
Rats were treated with compound 10, 12, or 27 at a dose of 100 nmol/kg s.c. At t=1 h, a blood sample was taken and 10 mg/kg of Avidin (from egg white, Sigma) was administered i.v. to the rats treated with compound 10 or 12. Blood was sampled at 0.5-1-3-6 and 23 hours subsequently. The blood was treated as described in the pharmacokinetic experiment and the concentration of the samples was determined by measuring the (residual) anti-Xa activity. (FIG. 8)
In a separate experiment compound 10, 17 or 26 was administered at a dose of 500 nmol/kg s.c. after which blood was collected at 24 hours. Then 10 mg/kg avidin was administered intravenously and blood was collected at 25 and 26 hours. (FIG. 9)

[3] = system: human platelet rich plasma; assay: Inhibition of human platelet aggregation induced by ADP (PRP); assay type: cell-based
Protocol: The final concentration is 0.38% sodium citrate.
The optical density (OD620) is then measured at 620 nm. […] This is to verify the stability of the platelets (absence of spontaneous platelet aggregation). […] Between two measurements, the plate is shaking for 40 seconds at 1,000 rpm. Each test compound is investigated in at least 2 experiments using PRP from different volunteers.
The mean OD at each compound concentration (including vehicle) is calculated at t=0 min and t=10 min. The percentage inhibition at each concentration is calculated using the formula: […]

[4] = system: guinea pig platelet aggregation; assay: In vitro neutralisation of inhibition of guinea pig platelet aggregation by avidin; assay type: cell-based; settings: avidin added to ADP-induced guinea pig platelet aggregation assay
Protocol: 2.1 In Vitro Neutralization of the Antithrombotic Activity A. In Vitro Neutralisation of Inhibition of Platelet Aggregation (Pre-Incubation of Compound with Avidin)
As performed in above described protocol for ADP-induced platelet aggregation. […] Before inducing the guinea pig platelet aggregation by adding ADP, compound and avidin (from egg white, Sigma) in different concentrations were pre-incubated for 2 minutes at room temperature (FIGS. 1 and 2).
B. In Vitro Neutralisation of Inhibition of Platelet Aggregation
(After Delayed Addition of Avidin)
(§1) As performed in above described protocol for ADP-induced platelet aggregation. […] After 7 minutes the detection of platelet aggregation was interrupted and avidin (from egg white, Sigma) in different concentrations was added at t=9 min. Within 1 minute the detection of the platelet aggregation was resumed (FIGS. 3 and 4).

[5] = Bleeding in guinea pigs and its stop by avidin; assay type: in vivo, guinea pig; settings: guinea pigs
[6] = system: human platelet aggregation; assay: In vitro neutralisation of inhibition of human platelet aggregation by avidin; assay type: cell-based; settings: avidin added 9 minutes after ADP-induced aggregation, human platelets
Protocol: as §1
In FIG. 5, the effect of avidin on the inhibition of human platelet aggregation by compound 17 is shown (addition of avidin 9 minutes after ADP-induced platelet aggregation).

[7] = s.c. 100 nmol/kg, avidin 10 mg/kg i.v.

Row | SMILES | pharmacokinetic behavior in rats (comparison) [1] | level at time molar at 24 h [2] [nM] | neutralization by avidin of (residual) anti-Xa activity / pharmacokinetic behavior [2, 7] | Plasma level T = 26 h [2] [nM] | % reduction of plasma concentration [2] [%] | IC50 [3] [nM] | effect of avidin on inhibition of guinea pig platelet aggregation (neutralisation of anti-GPIIbIIIa activity) [4] | Tmax ([1]; 100 nmol/kg) [h] | AUC(0-inf) ([1]; 100 nmol/kg, mean ± s.e.m.) [µM·h] | Cmax ([1]; 100 nmol/kg, mean ± s.e.m.) [nM] | half-life ([1]; 100 nmol/kg, mean ± s.e.m.) [h] | also measured
1 | CO[C@H]1O[C@H](COS(=O)(=O)O)[C@@H](O[C@@H]2O[C@@H](C(=O)O)[C@@H](O[C@H]3O[C@H](COS(=O)(=O)O)[C@@H](O[C@@H]4O[C@H](C(=O)O)[C@@H](O[C@H]5O[C@H](COS(=O)(=O)O)[C@@H](OCCOCCOCCOCCNC(=O)[C@H](CCCCNC(=O)CCCC[C@@H]6SC[C@@H]7NC(=O)N[C@@H]76)NC(=O)COCCOCCOCCOCCNC(=O)c6cccc(S(=O)(=O)N[C@@H](Cc7ccc(OCCCCC8CCNCC8)cc7)C(=O)O)c6)[C@H](OC)[C@H]5OC)[C@H](OC)[C@H]4OC)[C@H](OS(=O)(=O)O)[C@H]3OS(=O)(=O)O)[C@H](OC)[C@H]2OC)[C@H](OS(=O)(=O)O)[C@H]1OS(=O)(=O)O [Compound 10, sodium salt] | same pharmacokinetic behavior | 733 ± 33 | can be neutralized | 185 ± 45 | 75 | 74 | immediate restoration of platelet aggregation |  |  |  |  | Cl ([1]; 500 nmol/kg, mean ± s.e.m.): 0.11 ± 0.005 mL/min/kg; Vz ([1]; 500 nmol/kg, mean ± s.e.m.): 0.103 ± 0.009 L/kg; Tmax ([1]; 500 nmol/kg): 1.3 h; AUC(0-inf) ([1]; 500 nmol/kg, mean ± s.e.m.): 76.2 ± 2.8 µM·h; Cmax ([1]; 500 nmol/kg, mean ± s.e.m.): 4500 ± 400 nM; half-life ([1]; 500 nmol/kg, mean ± s.e.m.): 10.7 ± 1.5 h; Cl in comparison to compound 12 [2, 7]: strongly increased; overall AUCinf in comparison to compound 12 [2, 7]: strongly reduced; overall T1/2 eli in comparison to compound 12 [2, 7]: strongly reduced
2 | CO[C@H]1O[C@H](COS(=O)(=O)O)[C@@H](O[C@@H]2O[C@@H](C(=O)O)[C@@H](O[C@H]3O[C@H](COS(=O)(=O)O)[C@@H](O[C@@H]4O[C@H](C(=O)O)[C@@H](O[C@H]5O[C@H](COS(=O)(=O)O)[C@@H](OCCOCCOCCOCCNC(=O)COCCOCCOCCOCCNC(=O)c6cccc(S(=O)(=O)N[C@@H](Cc7ccc(OCCCCC8CCNCC8)cc7)C(=O)O)c6)[C@H](OC)[C@H]5OC)[C@H](OC)[C@H]4OC)[C@H](OS(=O)(=O)O)[C@H]3OS(=O)(=O)O)[C@H](OC)[C@H]2OC)[C@H](OS(=O)(=O)O)[C@H]1OS(=O)(=O)O [Compound 12, sodium salt, reference compound] | same pharmacokinetic behavior |  | not affected |  |  | 92 | cannot be restored | 1.3 | 16.8 ± 0.5 | 1260 ± 20 | 9.8 ± 0.4 | 
3 | CO[C@H]1O[C@H](COS(=O)(=O)O)[C@@H](O[C@@H]2O[C@@H](C(=O)O)[C@@H](O[C@H]3O[C@H](COS(=O)(=O)O)[C@@H](O[C@@H]4O[C@H](C(=O)O)[C@@H](O[C@H]5O[C@H](COS(=O)(=O)O)[C@@H](OCCOCCOCCOCCNC(=O)[C@H](CCCCNC(=O)C[C@H](NC(=O)CCCC[C@@H]6SC[C@@H]7NC(=O)N[C@@H]76)C(=O)O)NC(=O)COCCOCCOCCOCCNC(=O)c6cccc(S(=O)(=O)N[C@@H](Cc7ccc(OCCCCC8CCNCC8)cc7)C(=O)O)c6)[C@H](OC)[C@H]5OC)[C@H](OC)[C@H]4OC)[C@H](OS(=O)(=O)O)[C@H]3OS(=O)(=O)O)[C@H](OC)[C@H]2OC)[C@H](OS(=O)(=O)O)[C@H]1OS(=O)(=O)O [Compound 17, sodium salt] | same pharmacokinetic behavior | 666 ± 93 |  | 112 ± 35 | 83 | 49 |  | 1.7 | 15.9 ± 0.9 | 1240 ± 10 | 10.4 ± 0.5 | bleeding induced after administration [5]: dose-dependent bleeding; effect of avidin on induced bleeding ([5]; avidin i.v. 10 mg/kg): stopped immediately; effect of avidin on inhibition of human platelet aggregation [6]: full restoration of human platelet aggregation
